# B1: Hairpin Ribozyme (parent)
# chain: GUCCUCUUUCACGUGCGCGUGAAAGAGAGAAGUGAACCAGAGAAACACACGUUGUGGUAUAUUACCUGGUA
# Variants of: B1
# Test: self-cleavage, relative activity (ratio to wild type); higher = more cleavage; co-transcriptional
row,Variant,self-cleavage
1,A24G C65G,0.296
2,A43G U52G,0
3,G25U A43C,0.166
4,U20G G54A,0.417
5,U8C A35U,0.679
6,G17U G51A,0.946
7,U7C U58C,0.775
8,U9A A61C,0.144
9,G57C A61C,0.236
10,U8C C38A,0.215
11,A11U A22U,0.501
12,G40A A43C,0.147
13,G25C U53A,0.497
14,G32A A61U,0.154
15,U8A C66U,0.238
16,C50A A64U,0.13
17,A23G A43U,0.184
18,U14G G56C,0.164
19,G13C U63G,0.164
20,G1U G57C,0.145
21,U5A A43C,0.113

row,Variant,self-cleavage
1,C4U C6A,0.0821
2,U9A G25U,0.285
3,U5A U62G,0.11
4,U2A A35G,0.225
5,C4G C16U,0.194
6,G21A A71G,0.854
7,G34U A61C,1.2
8,G27A A41C,0.602
9,A45C U60C,0.293
10,A36C C38U,0.274
11,A30U C50G,0.157
12,U9G U55A,0.179
13,C16A U58G,0.736
14,C18U C38G,0.158
15,U8G A23U,0.738
16,C6U A64G,0.514
17,C65G U67G,0.0652
18,C10A G25C,0.227
19,U20A U60A,0.607
20,C10A G32U,0.156
21,U20G C38A,0.184

row,Variant,self-cleavage
1,A49G U58C,0.532
2,G1A C12U,0.266
3,C4G U20A,0.225
4,C46G A59U,0.13
5,A36C U70A,0.958
6,A24C A61G,0.156
7,C4A C10A,0.16
8,C18A G56U,0.196
9,C3G C50A,0.0499
10,A31U A39G,0.0984
11,A24U G34A,1.02
12,C4G U55G,0.113
13,U2A U33G,0.151
14,G15U A64G,0.657
15,G15A U20G,0.85
16,C12U U63G,0.162
17,U7C G54U,0.242
18,G1A G15A,0.208
19,G27C G68U,0.147
20,C37U A41C,0.567
21,U2G A23U,0.265

row,Variant,self-cleavage
1,A31C A39C,0.173
2,A30G A43C,0.1
3,G69A U70A,0.434
4,A43G C46G,0.26
5,A45U U58C,0.0664
6,G1A U62C,0.133
7,U33G A61G,0.229
8,G40U U60A,0.191
9,C48G U58C,0.143
10,U58C G68C,0.243
11,C6G G57U,0.238
12,G32C A36U,0.136
13,C3U U14C,0.451
14,G54C C66A,0.169
15,G19A U53G,0.691
16,U14C A26C,0.727
17,C12U G57C,0.222
18,G51C G57U,0.204
19,G1A U58C,0.216
20,U5G G54C,0.212
21,A39C A64C,0.193

# Reference: the RNAGym collection of RNA variant scans (doi:10.7554/elife.80360)
